From patent US20190083585

T1: fluorescently quenched α-gliadin hexapeptide analogue QXL520-PQPQLP-K(5-FAM)-NH2
T1 chain: PQPQLP


Biological target: T1, fluorescently quenched α-gliadin …

Protein	Fold Change in Activity of PQ Hydrolysis Relative to Wild Type Kumamolysin-As [fold]
Kumamolisin-As N291D, Q361D (protein) AAPTAYTPLDVAQAYQFPEGLDGQGQCIAIIELGGGYDEASLAQYFASLGVPAPQVVSVSVDGASNQPTGDPSGPDGEVELDIEVAGALAPGAKFAVYFAPDTDAGFLDAITTAIHDPTLKPSVVSISWGGPEDSWTSAAIAAMNRAFLDAAALGVTVLAAAGDSGSTDGEDDGLYHVDFPAASPYVLACGGTRLVASGGRIAQETVWNDGPDGGATGGGVSRIFPLPAWQEHANVPPSANPGASSGRGVPDLAGNADPATGYEVVIDGEATVIGGTSAVAPLFAALVARINQKLGKAVGYLNPTLYQLPADVFHDITEGNNDIANRAQIYQAGPGWDPCTGLGSPIGVRLLQALLPSASQPQPGSTENLYFQSGALEHHHHHH	7.5
Kumamolisin-As N291D, G319S, D358G, Q361D, D368H (protein) AAPTAYTPLDVAQAYQFPEGLDGQGQCIAIIELGGGYDEASLAQYFASLGVPAPQVVSVSVDGASNQPTGDPSGPDGEVELDIEVAGALAPGAKFAVYFAPDTDAGFLDAITTAIHDPTLKPSVVSISWSGPEDSWTSAAIAAMNRAFLDAAALGVTVLAAAGDSGSTGGEDDGLYHVHFPAASPYVLACGGTRLVASGGRIAQETVWNDGPDGGATGGGVSRIFPLPAWQEHANVPPSANPGASSGRGVPDLAGNADPATGYEVVIDGEATVIGGTSAVAPLFAALVARINQKLGKAVGYLNPTLYQLPADVFHDITEGNNDIANRAQIYQAGPGWDPCTGLGSPIGVRLLQALLPSASQPQPGSTENLYFQSGALEHHHHHH	23.1
Kumamolisin-As N291D, D293A, D358G, Q361D (protein) AAPTAYTPLDVAQAYQFPEGLDGQGQCIAIIELGGGYDEASLAQYFASLGVPAPQVVSVSVDGASNQPTGDPSGPDGEVELDIEVAGALAPGAKFAVYFAPDTAAGFLDAITTAIHDPTLKPSVVSISWGGPEDSWTSAAIAAMNRAFLDAAALGVTVLAAAGDSGSTGGEDDGLYHVDFPAASPYVLACGGTRLVASGGRIAQETVWNDGPDGGATGGGVSRIFPLPAWQEHANVPPSANPGASSGRGVPDLAGNADPATGYEVVIDGEATVIGGTSAVAPLFAALVARINQKLGKAVGYLNPTLYQLPADVFHDITEGNNDIANRAQIYQAGPGWDPCTGLGSPIGVRLLQALLPSASQPQPGSTENLYFQSGALEHHHHHH	15
Kumamolisin-As N291D, D358N (protein) AAPTAYTPLDVAQAYQFPEGLDGQGQCIAIIELGGGYDEASLAQYFASLGVPAPQVVSVSVDGASNQPTGDPSGPDGEVELDIEVAGALAPGAKFAVYFAPDTDAGFLDAITTAIHDPTLKPSVVSISWGGPEDSWTSAAIAAMNRAFLDAAALGVTVLAAAGDSGSTNGEQDGLYHVDFPAASPYVLACGGTRLVASGGRIAQETVWNDGPDGGATGGGVSRIFPLPAWQEHANVPPSANPGASSGRGVPDLAGNADPATGYEVVIDGEATVIGGTSAVAPLFAALVARINQKLGKAVGYLNPTLYQLPADVFHDITEGNNDIANRAQIYQAGPGWDPCTGLGSPIGVRLLQALLPSASQPQPGSTENLYFQSGALEHHHHHH	18.9
Kumamolisin-As N291D, D293A, G319S, D358G, Q361D, D368H (protein) AAPTAYTPLDVAQAYQFPEGLDGQGQCIAIIELGGGYDEASLAQYFASLGVPAPQVVSVSVDGASNQPTGDPSGPDGEVELDIEVAGALAPGAKFAVYFAPDTAAGFLDAITTAIHDPTLKPSVVSISWSGPEDSWTSAAIAAMNRAFLDAAALGVTVLAAAGDSGSTGGEDDGLYHVHFPAASPYVLACGGTRLVASGGRIAQETVWNDGPDGGATGGGVSRIFPLPAWQEHANVPPSANPGASSGRGVPDLAGNADPATGYEVVIDGEATVIGGTSAVAPLFAALVARINQKLGKAVGYLNPTLYQLPADVFHDITEGNNDIANRAQIYQAGPGWDPCTGLGSPIGVRLLQALLPSASQPQPGSTENLYFQSGALEHHHHHH	40.9
Kumamolisin-As N291D, D293A (protein) AAPTAYTPLDVAQAYQFPEGLDGQGQCIAIIELGGGYDEASLAQYFASLGVPAPQVVSVSVDGASNQPTGDPSGPDGEVELDIEVAGALAPGAKFAVYFAPDTAAGFLDAITTAIHDPTLKPSVVSISWGGPEDSWTSAAIAAMNRAFLDAAALGVTVLAAAGDSGSTDGEQDGLYHVDFPAASPYVLACGGTRLVASGGRIAQETVWNDGPDGGATGGGVSRIFPLPAWQEHANVPPSANPGASSGRGVPDLAGNADPATGYEVVIDGEATVIGGTSAVAPLFAALVARINQKLGKAVGYLNPTLYQLPADVFHDITEGNNDIANRAQIYQAGPGWDPCTGLGSPIGVRLLQALLPSASQPQPGSTENLYFQSGALEHHHHHH	15
Kumamolisin-As N291D, D293A, Q361D, D358N (protein) AAPTAYTPLDVAQAYQFPEGLDGQGQCIAIIELGGGYDEASLAQYFASLGVPAPQVVSVSVDGASNQPTGDPSGPDGEVELDIEVAGALAPGAKFAVYFAPDTAAGFLDAITTAIHDPTLKPSVVSISWGGPEDSWTSAAIAAMNRAFLDAAALGVTVLAAAGDSGSTNGEDDGLYHVDFPAASPYVLACGGTRLVASGGRIAQETVWNDGPDGGATGGGVSRIFPLPAWQEHANVPPSANPGASSGRGVPDLAGNADPATGYEVVIDGEATVIGGTSAVAPLFAALVARINQKLGKAVGYLNPTLYQLPADVFHDITEGNNDIANRAQIYQAGPGWDPCTGLGSPIGVRLLQALLPSASQPQPGSTENLYFQSGALEHHHHHH	14.8
Kumamolisin-As T292S, N291D, G319S, D358G, D368H (protein) AAPTAYTPLDVAQAYQFPEGLDGQGQCIAIIELGGGYDEASLAQYFASLGVPAPQVVSVSVDGASNQPTGDPSGPDGEVELDIEVAGALAPGAKFAVYFAPDSDAGFLDAITTAIHDPTLKPSVVSISWSGPEDSWTSAAIAAMNRAFLDAAALGVTVLAAAGDSGSTGGEQDGLYHVHFPAASPYVLACGGTRLVASGGRIAQETVWNDGPDGGATGGGVSRIFPLPAWQEHANVPPSANPGASSGRGVPDLAGNADPATGYEVVIDGEATVIGGTSAVAPLFAALVARINQKLGKAVGYLNPTLYQLPADVFHDITEGNNDIANRAQIYQAGPGWDPCTGLGSPIGVRLLQALLPSASQPQPGSTENLYFQSGALEHHHHHH	49
Kumamolisin-As S354N, D358G, D368H (protein) AAPTAYTPLDVAQAYQFPEGLDGQGQCIAIIELGGGYDEASLAQYFASLGVPAPQVVSVSVDGASNQPTGDPSGPDGEVELDIEVAGALAPGAKFAVYFAPNTDAGFLDAITTAIHDPTLKPSVVSISWGGPEDSWTSAAIAAMNRAFLDAAALGVTVLAAAGDNGSTGGEQDGLYHVHFPAASPYVLACGGTRLVASGGRIAQETVWNDGPDGGATGGGVSRIFPLPAWQEHANVPPSANPGASSGRGVPDLAGNADPATGYEVVIDGEATVIGGTSAVAPLFAALVARINQKLGKAVGYLNPTLYQLPADVFHDITEGNNDIANRAQIYQAGPGWDPCTGLGSPIGVRLLQALLPSASQPQPGSTENLYFQSGALEHHHHHH	9
Kumamolisin-As N291D, D293A, D358N (protein) AAPTAYTPLDVAQAYQFPEGLDGQGQCIAIIELGGGYDEASLAQYFASLGVPAPQVVSVSVDGASNQPTGDPSGPDGEVELDIEVAGALAPGAKFAVYFAPDTAAGFLDAITTAIHDPTLKPSVVSISWGGPEDSWTSAAIAAMNRAFLDAAALGVTVLAAAGDSGSTNGEQDGLYHVDFPAASPYVLACGGTRLVASGGRIAQETVWNDGPDGGATGGGVSRIFPLPAWQEHANVPPSANPGASSGRGVPDLAGNADPATGYEVVIDGEATVIGGTSAVAPLFAALVARINQKLGKAVGYLNPTLYQLPADVFHDITEGNNDIANRAQIYQAGPGWDPCTGLGSPIGVRLLQALLPSASQPQPGSTENLYFQSGALEHHHHHH	24
Kumamolisin-As N291D, Q361D, D358G (protein) AAPTAYTPLDVAQAYQFPEGLDGQGQCIAIIELGGGYDEASLAQYFASLGVPAPQVVSVSVDGASNQPTGDPSGPDGEVELDIEVAGALAPGAKFAVYFAPDTDAGFLDAITTAIHDPTLKPSVVSISWGGPEDSWTSAAIAAMNRAFLDAAALGVTVLAAAGDSGSTGGEDDGLYHVDFPAASPYVLACGGTRLVASGGRIAQETVWNDGPDGGATGGGVSRIFPLPAWQEHANVPPSANPGASSGRGVPDLAGNADPATGYEVVIDGEATVIGGTSAVAPLFAALVARINQKLGKAVGYLNPTLYQLPADVFHDITEGNNDIANRAQIYQAGPGWDPCTGLGSPIGVRLLQALLPSASQPQPGSTENLYFQSGALEHHHHHH	20
Kumamolisin-As N291D, G319S, S354N, D358G, Q361D, D368H (protein) AAPTAYTPLDVAQAYQFPEGLDGQGQCIAIIELGGGYDEASLAQYFASLGVPAPQVVSVSVDGASNQPTGDPSGPDGEVELDIEVAGALAPGAKFAVYFAPDTDAGFLDAITTAIHDPTLKPSVVSISWSGPEDSWTSAAIAAMNRAFLDAAALGVTVLAAAGDNGSTGGEDDGLYHVHFPAASPYVLACGGTRLVASGGRIAQETVWNDGPDGGATGGGVSRIFPLPAWQEHANVPPSANPGASSGRGVPDLAGNADPATGYEVVIDGEATVIGGTSAVAPLFAALVARINQKLGKAVGYLNPTLYQLPADVFHDITEGNNDIANRAQIYQAGPGWDPCTGLGSPIGVRLLQALLPSASQPQPGSTENLYFQSGALEHHHHHH	50
Kumamolisin-As S262G, T292S, N291D, G319S, D358G, D368H (protein) AAPTAYTPLDVAQAYQFPEGLDGQGQCIAIIELGGGYDEASLAQYFASLGVPAPQVVSVSVDGASNQPTGDPGGPDGEVELDIEVAGALAPGAKFAVYFAPDSDAGFLDAITTAIHDPTLKPSVVSISWSGPEDSWTSAAIAAMNRAFLDAAALGVTVLAAAGDSGSTGGEQDGLYHVHFPAASPYVLACGGTRLVASGGRIAQETVWNDGPDGGATGGGVSRIFPLPAWQEHANVPPSANPGASSGRGVPDLAGNADPATGYEVVIDGEATVIGGTSAVAPLFAALVARINQKLGKAVGYLNPTLYQLPADVFHDITEGNNDIANRAQIYQAGPGWDPCTGLGSPIGVRLLQALLPSASQPQPGSTENLYFQSGALEHHHHHH	29
Kumamolisin-As N291D (protein) AAPTAYTPLDVAQAYQFPEGLDGQGQCIAIIELGGGYDEASLAQYFASLGVPAPQVVSVSVDGASNQPTGDPSGPDGEVELDIEVAGALAPGAKFAVYFAPDTDAGFLDAITTAIHDPTLKPSVVSISWGGPEDSWTSAAIAAMNRAFLDAAALGVTVLAAAGDSGSTDGEQDGLYHVDFPAASPYVLACGGTRLVASGGRIAQETVWNDGPDGGATGGGVSRIFPLPAWQEHANVPPSANPGASSGRGVPDLAGNADPATGYEVVIDGEATVIGGTSAVAPLFAALVARINQKLGKAVGYLNPTLYQLPADVFHDITEGNNDIANRAQIYQAGPGWDPCTGLGSPIGVRLLQALLPSASQPQPGSTENLYFQSGALEHHHHHH	10
